Data as given in PMC3602430, “Identification of a Missing Link in the Evolution of an Enzyme into a Transcriptional Regulator” (PLoS ONE, 2013).
One block for each molecule: values may come before it.

How the values were obtained:
[1] = target: T1, BzdR (CBzdR, C-terminal effector-binding domain); assay: intrinsic protein fluorescence titration, one-site model; design: species or system Azoarcus sp. CIB
T1 construct: His6-CBzdR, residues 131–298

[2] = target: NBzdR, N-terminal DNA-binding domain of BzdR (Azoarcus sp. CIB); assay: AUC; sedimentation equilibrium of the purified proteins in solution, data fitted to dimer and monomer species; sedimentation velocity showed single species (1.8 and 2.3 S); conditions not shown
[3] = target: NBzdRL, N-terminal domain of BzdR fused to its linker region (Azoarcus sp. CIB); assay: as above
[4] = target: Q1 chimera (NBzdRL fused to E. coli shikimate kinase I) (Azoarcus sp. CIB | E. coli) (UniProt P0A6D7); assay: AUC; sedimentation velocity of purified His6-tagged proteins, c(s) distribution; s-value did not change significantly over 1-30 µM protein
[5] = substrate: O=C(O)C1=C[C@@H](O)[C@@H](O)[C@H](O)C1; assay: coupled pyruvate kinase/lactate dehydrogenase shikimate kinase assay (Km); assay type: biochemical, Escherichia coli; settings: Mg2+, ATP

Molecule: CC(C)(COP(=O)(O)OP(=O)(O)OC[C@H]1O[C@@H](n2cnc3c(N)ncnc32)[C@H](O)[C@@H]1OP(=O)(O)O)[C@@H](O)C(=O)NCCC(=O)NCCSC(=O)c1ccccc1 [benzoyl-CoA]
Kd [1]: 203 ± 35 µM

B1: shikimate kinase I (SKI) (Escherichia coli K-12) (protein)
chain: AEKRNIFLVGPMGAGKSTIGRQLAQQLNMEFYDSDQEIEKRTGADVGWVFDLEGEEGFRDREEKVINELTEKQGIVLATGGGSVKSRETRNRLSARGVVVYLETTIEKQLARTQRDKKRPLLHVETPPREVLEALANERNPLYEEIADVTIRTDDQSAKVVANQIIHMLESN
notes: His6-SKI
Km [5]: 400 µM

The remaining lines, values ahead:

stoichiometry N [2]: 2
Molecule: NBzdR, N-terminal DNA-binding domain of BzdR (domain or fragment)

stoichiometry N [3]: 2
Molecule: NBzdRL, N-terminal domain of BzdR fused to its linker region (domain or fragment)

stoichiometry N [4]: 2
Molecule: Q1 chimera (NBzdRL fused to E. coli shikimate kinase I) (from UniProt P0A6D7 1-173)
